Laboratory results taken from the DeepSol protein solubility set.

Experiment: soluble on expression in E. coli; label from the status in PepcDB or PDB records
With “SLGWIKRLIRMVFQQVGVSMQSVLWSRKPYGSSRSIVRKIGTNLSLIQCPRVQFQINSHATEWSPSHPGEDAVASFADVGWVAKEEGECSARLRTEVRSRPPLQDDLLFFEKAPSRQISLPDLSQEEPQLKTPARANEEALQKICALENELAALRAQIAKIVTQQEQQNLTAGDLDSTTFGTIPPHPPPPPPPLPPPALGLHQSTSAVDLIKERREKRANAGKTLVKNNPKKPEMPNMLEILKEMNSVKLRSVKRSEQDVKPKPVDATDPAALIAEALKKKFAYRYRSDSQDEVEKGIPKSESEATSERVLFGPHMLKPTGKMKALIENVSDS” the “soluble on expression in E. coli” value was “not soluble”. For “MVTQILGAMESQVGGGPAGPALPNGPLLGTNGATDDSKTNLIVNYLPQNMTQDEFKSLFGSIGDIESCKLVRDKITGQSLGYGFVNYSDPNDADKAINTLNGLKLQTKTIKVSYARPSSASIRDANLYVSGLPKTMSQKEMEQLFSQYGRIITSRILVDQVTGVSRGVGFIRFDKRIEAEEAIKGLNGQKPLGAAEPITVKFANNPSQKTGQALLTHLYQSSARRYAGPLHHQTQRFRLDNLLNMAYGVKSPLSLIARFSPIAIDGMSGLAGVGLSGGAAGAGWCIFVYNLSPEADESVLWQLFGPFGAVTNVKVIRDFTTNKCKGFGFVTMTNYDEAAMAIASLNGYRLGERVLQVSFKTSKQHKA”, the “soluble on expression in E. coli” value was “soluble”. In the case of “MNNREIVQKLWNLCNVLRDDGITYHQYVTELTYLLFLKMMKETGQEYIIPEPYRWDVLAKKDGIELKTYYQQLLMALGQEENELLRQIYTDATSNIREPKNLEKIIRTIDALDWYNAKEEGLGALYEGLLEKNASELKSGAGQYFTPRVLIDVIVELVDPKPGERCHDPAAGTFGFMIAASRHVRAKTDDYFDLSEEEIRFQKYEAFSGVELVRDTHRLAVMNALLHDVHGDILLGDTLSPLGEQLKGYDVILTNPPFGTKKGGERATRTDFTFMTSNKQLNFLQHIYRALRPNGKARAAVVVPDNVLFEGGVGADIRRDLMDKCNVHTILRLPTGIFYAQGVKTNVLFFTRGETDTGNTKEVWVYDLRTNMPSFGKRNPLTKDHFAGFMKAYTAEDRHQVDDERWNVFTRDDIAKKGDSLDIGLIADESLSVYDNLPDPIDSAEEAVEKLELAISLLNEVIAELKAAEHPPRYEPAKTEMLHVAERLEVSER”, the “soluble on expression in E. coli” value is reported as “not soluble”. For “MTTAPAKISEYTVSTPDRTVASVRADGIVAATPLGSHGYAADAGGPHLAPGVSAAAVVPVSPFRVDRTNWVVCPPVSVTVARDETTVELHADGHAHGRVPVDSPVTLSWGTPLPIAVVSHAGTHGD”, the “soluble on expression in E. coli” value was “soluble”. For “MTYLVTGATGGLGGYALNYLKELVPMSDIYALVRSKEKGADLKAAGFNIRVGDYSDAESMKQAFAGIDRVLFVSGAPGNRQVEHENVINAAKKAGVSYIAYTSFAGADKSTSALAEDHFFTEKVIEKSGIAHTFLRNNWYFENEMPMIGGALSAGKFVYAAENGKVGWALKREYAEVAAKAVAGAGFPEILELSGPLMTYEELTKALKEATGKDFDVISSDDKGFVENLVSVGLPQPVAEMFLSFQHDIKNDQLDVTSDDFEKALGKPLTNRVDALRELLKLEHHHHHH”, the “soluble on expression in E. coli” value was “soluble”. In the case of “MPVHSRGDKKETNHHDEMEVDYAENEGSSSEDEDTESSSVSEDGDSSEMDDEDCERRRMECLDEMSNLEKQFTDLKDQLYKERLSQVDAKLQEVIAGKAPEYLEPLATLQENMQIRTKVAGIYRELCLESVKNKYECEIQASRQHCESEKLLLYDTVQSELEEKIRRLEEDRHSIDITSELWNDELQSRKKRKDPFSPDKKKPVVVSGPYIVYMLQDLDILEDWTTIRKAMATLGPHRVKTEPPVKLEKHLHSARSEEGRLYYDGEWYIRGQTICIDKKDECPTSAVITTINHDEVWFKRPDGSKSKLYISQLQKGKYSIKHS”, the “soluble on expression in E. coli” value is reported as “soluble”. For “MSLKPASVIIMDEHPIVRMSIEVLLGKNSNIQVVLKTDDSRTAIEYLRTYPVDLVILDIELPGTDGFTLLKRIKSIQEHTRILFLSSKSEAFYAGRAIRAGANGFVSKRKDLNDIYNAVKMILSGYSFFPSETLNFISNTRTPKGGHHDMPLSNREVTVLRYLANGMSNKEIAEQLLLSNKTISAHKANIFSKLGLHSIVELIDYAKSHELLEGHHHHHH”, the “soluble on expression in E. coli” value was “soluble”. In the case of “MGKVILVTGVSRGIGKSIVDVLFSLDKDTVVYGVARSEAPLKKLKEKYGDRFFYVVGDITEDSVLKQLVNAAVKGHGKIDSLVANAGVLEPVQNVNEIDVNAWKKLYDINFFSIVSLVGIALPELKKTNGNVVFVSSDACNMYFSSWGAYGSSKAALNHFAMTLANEERQVKAIAVAPGIVDTDMQVNIRENVGPSSMSAEQLKMFRGLKENNQLLDSSVPATVYAKLALHGIPDGVNGQYLSYNDPALADFMP”, the “soluble on expression in E. coli” value is reported as “soluble”. With “MITSPFERELKLLNEGELGIVQQLVESSNIGFIVDLELDGDYGWAVYKPELGEQPLWDFPPGLYKRERAAFVISEFLGWNIVPPTVIMHDAPAGVGSVQWFIENNGEHYFPLFDTRADLHPQFVRMAVFDLLCNNTDRKAGHVLLDGDHIWGIDHGLCFSVEPKLRTVIWDFAGCTIPDDLVTDVEQLLEDVPEELHQLLHPAEIDALQRRASRISRLPFLPQAKSHRQFPWPLVLEHHHHHH” the “soluble on expression in E. coli” value was “soluble”. With “MMRGGMGNMNNMMKQMQKMQKDMAKAQEELGEKTVEGTAGGGMITVIANGHKQILEVKIKEEVVDPEDIEMLQDLVLAATNDALKKADELSNSTMGKFTKGLNLPGGMF” the “soluble on expression in E. coli” value was “not soluble”. For “MKLASLKSTRSRDGELCIVNRLLTAAIRVPHIASTLQYALDHWDVVEPKLQLVYQQLNDNQIEDAFAFAPELCASPLPRAYQWADGSAYVNHVELVRKARGAEMPADFWTNPLMYQGGSDAFLGPRDPILVSSEAYGIDFESEVAVITDDVPMGIDHTNAAHHIKLLMLVNDVSLRNLIPEELAKGFGFFQSKPASSFSPVAITPDELGSYWDGQRVNLPLISHLNEQLFGQPNAGVDMTFSFPELIQHAAKTRFLTAGTIIGSGTVSNLDRSKGSSCIAEKRMLEMIEFGQAKTPFMRFGDRIRIEMLDGQGYSLFGSIDQIVTKYDKDSL”, the “soluble on expression in E. coli” value was “not soluble”. In the case of “MMEMITIKPGKITVQANPNMPKEVAELFRKQHYEIVGRHSGVKLCHWLKKSLTEGRFCYKQKFYGIHSHRCLQMTPVLAWCTHNCIFCWRPMENFLGTELPQPWDDPAFIVEESIKAQRKLLIGYKGNPKVDKKKFEEAWNPTHAAISLSGEPMLYPYMGDLVEEFHKRGFTTFIVTNGTIPERLEEMIKEDKLPTQLYVSITAPDIETYNSVNIPMIPDGWERILRFLELMRDLPTRTVVRLTLVKGENMHSPEKYAKLILKARPMFVEAKAYMFVGYSRNRLTINNMPSHQDIREFAEALVKHLPGYHIEDEYEPSRVVLIMRDDVDPQGTGVEGRFIKHLEHHHHHH”, the “soluble on expression in E. coli” value is reported as “not soluble”. In the case of “MELAAGSFSEEQFWEACAELQQPALAGADWQLLVETSGISIYRLLDKKTGLYEYKVFGVLEDCSPTLLADIYMDSDYRKQWDQYVKELYEQECNGETVVYWEVKYPFPMSNRDYVYLRQRRDLDMEGRKIHVILARSTSMPQLGERSGVIRVKQYKQSLAIESDGKKGSKVFMYYFDNPGGQIPSWLINWAAKNGVPNFLKDMARACQNYLKKT”, the “soluble on expression in E. coli” value is reported as “soluble”. For “MSARLDAQIAFLKQADRLKSVERANVLLDLSRPENSAEHSWHLALWALVLSPFAAPDVDVDRAIRMLLLHDLVEIETGDHPIHEVTDWQAVERAERAAARKLFGLLPPDQAADFHTLWTEFDADETADARYAKMLDRCQPMFQVLCADTPRPDHVEVVRENLSSGRAAYLAEAFPEAHAHARALLERHPPVTGGFGDRLEFLAEADRLKTVLRASRLMDDSRFENSAEHSWHIMLYAWVLGEYAAAPVDIDRVLRMLLLHDLVEIDAGDNPIHGNVDHAAQEALEAAAAERLFGLLPPDQGAGLRAIWQEFETAQSADALFGKAVDRVQTPIANLENGGGSWVTYDVSLQQLVARVGTPVSRGAPGLWDWLFPQLSDCFTRLGLRLLEHHHHHH”, the “soluble on expression in E. coli” value was “soluble”. With “MRGKLDLGEQPLVLIWEVTQACELACKHCRADAQPRRHPDELSTAEGKALLDQASEFGDGQLVVLSGGDPLARGDLPELVEYGTEQGLRMTLTPSGTNSITPERLAELDDAGLRRLALSIDGGDSDAHDTFRGESGSFEATMAAAEAARNLDIPLQINTTVCAETVEQLPAIRDLVADLDAVLWSVFFLVPVGRGRVLTPIDPERAERVLKWLHEVSDEASFGLKTTEAPHYRRVAMEQQDEGASGLKRRMGIRAGKGFAFVSHTGEVFPSGFLPKSAGSVREESVVDIYRDSPLFQQLRDDDALTGKCGACRYRTVCGGSRSRAYATTGDPLAADPLCDYRPDGFEGSVPDQHPAD” the “soluble on expression in E. coli” value was “not soluble”. In the case of “MLASLHIANYVLIDRLDIDFAPHFSVITGETGAGKSILLGALGLLVGGRADTSAIAPGTDRCIVEGRFTGFVPEMKAVLDRYDLDFDPDECTIRREISSKGKSRAFVNDTPAPLTALRELADFLIDIHSQHKNLLLGDSLFQLNVLDAYSGKPDLYAHYSKAYRVYAERKQKLEDLRKAAAATASEYDYWQFRFEQLDKAGLESGEEARLQEEQAMLTHALDIKRELGHSYSLLSDDERGLLSGLNKVEDALATIESYYPDSASFRQRVRDVRIELADIASDLGRRSDDVSYEPERLNAVTDRLDEILSLLHRYNADSSDALIAIRDDLAERLSRISTDEEEISRLEQEVLAFYKEIEAQASLLTEERIRAASALETSLCESLRKLNMPHVRFVVDIRSTEYGPHGADKVVFLFSANKQMEPEPVSEIASGGEIARLMLCLKALIADKRSLPAIVFDEIDTGVSGEVADRMGEIMAHMGQGMQVLAITHLPQIAARGERHYFVYKDETGERARTFIRELTPEERIREIARMQSGNNLTDVALAAAKELLAR”, the “soluble on expression in E. coli” value is reported as “not soluble”. With “MKIKRLSLWHVPLTSHTAYYMAEGKTCDTVETAVLCIETDTGLTGWGEVCPIPHYLPAYARGVGPALSELAPVILSADPIGPEALMAKADAYLPDHRYAKSALDIALWDLTGQAAGLPLHALLGGQRQADLPLYHSITCIEPDEMARIAIEAQAQGMTQFQAKLGASGDWQTDVERLIKVREAVGSGPILYGDWNCGSTSLDATRTGRAVAHLDIMLEQPCATIEDCARVHSATGLPMKLDELVHDTASLLKAHQLGLMDVAALKLSKFGGLSATRRARDLCLHLGAKMCVEDTWGSDITTAAVLHLGAATDPARVLNVCDLSGYVSPRLAQDAPTRAQGRIAPPQAAGLGIAVDKTALGQPELILD” the “soluble on expression in E. coli” value was “soluble”. With “MHCAENCIFCKIIAGDIPSAKVYEDEHVLAFLDISQVTKGHTLVIPKTHIENVYEFTDELAKQYFHAVPKIARAIRDEFEPIGLNTLNNNGEKAGQSVFHYHMHIIPRYGKGDGFGAVWKTHADDYKPEDLQNISSSIAKRLASS” the “soluble on expression in E. coli” value was “soluble”. With “MEDKVDVLIIGGGASGVTSGIQSARMGANTLILEESTWLGGMLTSAGVSAVDGNYRLPAGLWGEFKNRLSDYYGGLDSLKTGWVSNVLFEPSVGNKILHEMVAAENNLKVWKQACLEEVKRTGDEWVAKVKVEGQGVKTVRAKVMIDATELGDVAKMCGLEHHHHHH” the “soluble on expression in E. coli” value was “not soluble”. In the case of “MSLVSLPKLSAKIIIRLIYIYQIGISPILGHHCRFSITCSQYGINSIRNFGILKGCWKTCIRILKCHPFNKNDNTQEGHHHHHH”, the “soluble on expression in E. coli” value is reported as “soluble”.
